Data on 31 sequences can be found in the supplement of paper PMC9170038.

For the series, the system named is MS2 coat protein. Put plainly: apparent KD of MS2 coat protein; designed switch direction (-1 OFF switch, 1 ON switch): -1; higher = weaker reporter binding. The method in brief:
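The apparent KD reported per design is the median over clusters of curve fits to normalised cluster fluorescence. The RNA switches were transcribed on Illumina chips by stalled E. coli RNA polymerase. SNAP-549-labelled MS2 coat protein was titrated from 0.7 or 1.5 nM, doubling up to 3 µM, in Tris-HCl pH 7.5 buffer containing KCl, MgCl2, BSA, DTT, tRNA and Tween-20, with no input, 200 uM small-molecule ligand, or an oligonucleotide input.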

Setting [1] is: Eterna round: R95, input ligand: FMN 200 uM.
The mark [2] stands for this setting: Eterna round: R95, input ligand: microRNA oligo, concentration not stated.
Setting [3] is: Eterna round: R95, input ligand: none.
[4] abbreviates: input ligand: microRNA oligo, concentration not stated.

Turning to “AGUUGGCGAGGAUAUACAUGAGGAUCACCCAUGUGAGAGAUACUAGUGAGGUCGAUUGGUAGAAGGCGCUGACG [Mat - Exclusion 3 - Mod of JL D79] (puzzle: Exclusion 3)”, the “apparent KD of MS2 coat protein” value was determined as 222 nM under setting [1], 104 nM under setting [2] and 151 nM under setting [3].

Regarding “AGUUGGCGAGGAUAUACAUGAGGAUCACCCAUGUGGGAGAUACUAGUGAGGUCGAUUAGUAGAAGGCGCUGACA [Mat X3R4 m8] (Eterna round: R97, puzzle: Exclusion 3)”, the “apparent KD of MS2 coat protein” value was 566 nM (input ligand: FMN 200 uM) and 209 nM (input ligand: none).

For the sequence “AGUUGUGUCAAGGAUAUGCAGUCUAACGACGGAGCAGAAGGUGACACUUGAGGAUCACCCAAGUGAACCAAAAU [Bisoreis] (Eterna round: R97, puzzle: Exclusion 6)”, the “apparent KD of MS2 coat protein” value worked out at 393 nM (input ligand: FMN 200 uM) and 57.5 nM (input ligand: none).

Turning to “AGUUGUUCAGGAUAUGAUGUAUGUUACAUGAGGAUCACCCAUGUAGGUCCUGGAUAUGUAUCAGAAGGGAAUAUCU [JR_Ex5_Sub059] (Eterna round: R97, puzzle: Exclusion 5)”, the “apparent KD of MS2 coat protein” value (input ligand: FMN 200 uM) was 40.8 nM and the “apparent KD of MS2 coat protein” value (input ligand: none) turned out to be 32 nM.

For the sequence “AGUUGUUGUUUCCGUUCUUACAUGAGGAUCACCCAUGUUUCUUGUCGUGCUCGCGUUGCUCGUCUGACUACCUGUUG [salish99_TOv1_r3_067] (puzzle: Sensor v3, turn-off variant 1)”, the “apparent KD of MS2 coat protein” value is, setting by setting: under setting [1], 52.5 nM; under setting [2], 40.3 nM; under setting [3], 68.1 nM.

Consider “AGUUGUUGUUUCCGUUCUUACAUGAGGAUCACCCAUGUUUCUUGUCGUGCUCGCGUUGCUCGUCUGGCUGCCUGUUG [salish99_TOv1_r3_069] (Eterna round: R96, puzzle: Sensor v3, turn-off variant 1)”, for which the “apparent KD of MS2 coat protein” value reads like this: (input ligand: FMN 200 uM) 47 nM; under setting [4], 28 nM; (input ligand: none) 46.4 nM.

“AGUUGUUGUUUCCGUUCUUACAUGAGGAUCACCCAUGUUUCUUGUCGUGCUCGCGUUGCUCGUCUGGCUGCCUGUUG [salish99_TOv1_r3_069] (puzzle: Sensor v3, turn-off variant 1)”: the “apparent KD of MS2 coat protein” value is, setting by setting: under setting [1], 40.7 nM; under setting [2], 35.2 nM; under setting [3], 53.3 nM.

Take “AUAAAACAUGAGGAUCACCCAUGUGAGGAUAUACGACUCCAACCUAACAGCUUGGACCGUAGAAGGCACAAGGG [Exclusion 1 (MOD3.2 Esqu)] (Eterna round: R97, puzzle: Exclusion 1)”: the “apparent KD of MS2 coat protein” value turned out to be 137 nM (input ligand: FMN 200 uM) and 159 nM (input ligand: none).

“AUAAAAUAGGAGGAUAUCGUAUCGGAAACGAUACGAGAAGGUCUAACAUGAGGAUCACCCAUGUUCCUCAAUAA [Mat - Exclusion 6 - Eli Mod - D46] (puzzle: Exclusion 6)”: the “apparent KD of MS2 coat protein” value reads like this: under setting [1], 142 nM; under setting [2], 36.3 nM; under setting [3], 37.6 nM.

Regarding “AUAAACGCAGGAUAUACAUGAGGAUCACCCAUGUAAAUUUUAAAAUAAAUAAAUAGAUGUAGAAGGGCGAAAUA [Lollin - Gamma 1] (puzzle: Exclusion 3)”, the “apparent KD of MS2 coat protein” value came out at 37 nM under setting [1], 28.2 nM under setting [2] and 33.5 nM under setting [3].

Turning to “AUAAAGCAAGGAUAUACAUGAGGAUCACCCAUGUAUGAAAGUUGGCCGCGGUUUAGAUGUAGAAGGUGCAAGGG [EX3 B.8] (Eterna round: R97, puzzle: Exclusion 3)”, the “apparent KD of MS2 coat protein” value worked out at 27.6 nM (input ligand: FMN 200 uM) and 28.1 nM (input ligand: none).

Turning to “AUAAGAAAGGCAGGAUAUUGUGCACCCUAGUGACAAGAAGGGCCAGGGUGUGCGCUCCACAUGAGGAUCACCCAUGUUAGAAAG [Berimate] (Eterna round: R96, puzzle: Exclusion NG 1)”, the “apparent KD of MS2 coat protein” value by setting is: (input ligand: FMN 200 uM) 26.4 nM; under setting [4], 27 nM; (input ligand: none) 29.3 nM.

Consider “AUAAGCUUUGAUAUCCUUAACAUGAGGAUCACCCAUGUUCGUCUUAUGAUGGUCUGAUCCCUGAGGAUCGGACCGUU [JL-sv1-2.06 Brourd Mod] (puzzle: Sensor v3, turn-off variant 1)”, for which the “apparent KD of MS2 coat protein” value by setting is: under setting [1], 34.4 nM; under setting [2], 88.4 nM; under setting [3], 33.1 nM.

With “AUAAGGUCAGGAUAUGCUUGGCUGAUUCUGGUGUCCAAAUGACAUGAGGAUCACCCAUGUAGAAGGGACAUCAG [Usgeledi] (Eterna round: R97, puzzle: Exclusion 2)”, the “apparent KD of MS2 coat protein” value by setting is: (input ligand: FMN 200 uM) 16.1 nM; (input ligand: none) 15.1 nM.

With “AUAAUACAUGUAGGAUAUGCGUGGCGAAGCUAUGCAGAAGGACAUGAGGAUCACCCAUGUUCUAGCGUCUGCGUACAGAUGCUA [JL eng1 1.35 mod 1] (Eterna round: R96, puzzle: Exclusion NG 1)”, the “apparent KD of MS2 coat protein” value runs as follows: (input ligand: FMN 200 uM) 37.3 nM; under setting [4], 14 nM; (input ligand: none) 18.1 nM.

For the sequence “AUAAUGCAAGCAUGGUCCCACAUGAGGAUCACCCAUGUGUUCGUCUUAUAGGCUGCUGUGGCUUUUGCCUCGUUGGC [LRO Sensor-off var1-10 loose mod of D91 from Mat747] (Eterna round: R97, puzzle: Sensor, turn-off variant 1)”, the “apparent KD of MS2 coat protein” value (input ligand: FMN 200 uM) was 74.3 nM and the “apparent KD of MS2 coat protein” value (input ligand: none) was determined as 78.5 nM.

Turning to “AUAAUGUCAGGAUAUCAGACGUACAGCUUCGGCUGUACGUCUGAGAAGGGACAUGAGGAUCACCCAUGUGAUUA [E4/3-A1] (Eterna round: R97, puzzle: Exclusion 4)”, the “apparent KD of MS2 coat protein” value amounted to 224 nM (input ligand: FMN 200 uM) and 940 nM (input ligand: none).

Turning to “AUAAUGUCAGGAUAUCAGUCGUACAGCCUCGGCUGUACGACUGAGAAGGGACAUGAGGAUCACCCAUGUGGUCA [E4/6-A2] (Eterna round: R97, puzzle: Exclusion 4)”, the “apparent KD of MS2 coat protein” value is, setting by setting: (input ligand: FMN 200 uM) 42.4 nM; (input ligand: none) 155 nM.

For “AUAAUGUGAGGAUAUCAGUCGACUAGCCUCGGCUAGUCGACUGAGAAGGCACAUGAGGAUCACCCAUGUAGAUC [E4/17-A2] (Eterna round: R97, puzzle: Exclusion 4)”, the “apparent KD of MS2 coat protein” value by setting is: (input ligand: FMN 200 uM) 75.8 nM; (input ligand: none) 825 nM.

Consider “AUACCACGAGGAUAUCGUCUCUCCCACAUGAGGAUCACCCAUGUUAUCCAUGUUUCGUUUCGAGAAGGCGUGGGUU [JR_E5_Sub072] (puzzle: Exclusion 5)”, for which, under setting [2], the “apparent KD of MS2 coat protein” value came out at 58.7 nM.

Turning to “AUACCAUGCCGCCUAAUAGCUUUUUGCUCGUCUUAUAAAACAUGAGGAUCACCCAUGUAAAACUCGUGGCGUGACCC [Leorbixe] (puzzle: Sensor v3, turn-off variant 2)”, the “apparent KD of MS2 coat protein” value runs as follows: under setting [1], 77 nM; under setting [2], 19.9 nM; under setting [3], 60.8 nM.

As to “AUACGUGAGAAGGAUAUCACACGCCAGAGGCGUUGAGAAGGUUUCACAUGAGGAUCACCCAUGUGCUCUUCCAG [Orlaa] (Eterna round: R97, puzzle: Exclusion 6)”, the “apparent KD of MS2 coat protein” value was 61.3 nM (input ligand: FMN 200 uM) and 23.5 nM (input ligand: none).

Take “AUAUACGGGCAGGAUAUGCGAGCCAGAAAGCACGCAGAAGGGCUAACAUGAGGAUCACCCAUGUGAGCAACUCG [Eternabot (Original) Solution 9] (Eterna round: R97, puzzle: Exclusion 6)”: the “apparent KD of MS2 coat protein” value reads like this: (input ligand: FMN 200 uM) 18.1 nM; (input ligand: none) 14.9 nM.

In the case of “AUAUCAAGCAAGGAUAUGCAAAUGGUUAUUUAUGCAGAAGGUGCGACAUGAGGAUCACCCAUGUUUCUGGGUUU [JR_E6_Sub050] (puzzle: Exclusion 6)”, the “apparent KD of MS2 coat protein” value under setting [2] stood at 68.2 nM.

Take “AUAUCACAUGAGGAUCACCCAUGUCAGGAUAUGAUACUAUGUACUUCGGUACAUAGUAUCAGAAGGGAUAUGAA [Ex1-3: 66] (Eterna round: R96, puzzle: Exclusion 1)”: the “apparent KD of MS2 coat protein” value by setting is: (input ligand: FMN 200 uM) 83.3 nM; under setting [4], 29.2 nM; (input ligand: none) 40.3 nM.

As to “AUAUCACAUGAGGAUCACCCAUGUCAGGAUAUGAUACUAUGUACUUCGGUACAUAGUAUCAGAAGGGAUAUGAA [Ex1-3: 66] (puzzle: Exclusion 1)”, under setting [2], the “apparent KD of MS2 coat protein” value is 45.4 nM.

Consider “AUAUCCCGAGGAUAUACAUGAGGAUCACCCAUGUCGGGCCUCUGGCCUAAGGCCGAAAGUAGAAGGUGGGUUUC [JL Riri mod 11] (puzzle: Exclusion 3)”, for which the “apparent KD of MS2 coat protein” value under setting [2] was determined as 126 nM.

With “AUAUGUGCGAGAGGAUAUCGUGUACAAAGUACACGAGAAGGCUUCACAUGAGGAUCACCCAUGUACCGAGGUGAAACACCUUGA [Omei Exc(NG)1 Bv5] (Eterna round: R96, puzzle: Exclusion NG 1)”, the “apparent KD of MS2 coat protein” value is, setting by setting: (input ligand: FMN 200 uM) 357 nM; under setting [4], 156 nM; (input ligand: none) 234 nM.

For the sequence “AUAUUAAUAGUAAGGAUAUGCGUAUAUAUAAUUAUGCAGAAGGUACAUGAGGAUCACCCAUGUAUUAAUGUAUA [LRO-BmodExc4-01-Oppy's Opus] (Eterna round: R97, puzzle: Brourd's mod of Exclusion 4)”, the “apparent KD of MS2 coat protein” value stood at 16.5 nM (input ligand: FMN 200 uM) and 15.6 nM (input ligand: none).

Turning to “AUAUUACAUGAGGAUCACCCAUGUGAGGAUAUGGAGCGAGACUGUCCUGUCGCGUACACCAGAAGGCGCGGGCG [1st #53] (Eterna round: R97, puzzle: Exclusion 1)”, the “apparent KD of MS2 coat protein” value was 27.5 nM (input ligand: FMN 200 uM) and 31 nM (input ligand: none).

Turning to “AUAUUACAUGAGGAUCACCCAUGUGAGGAUAUGGAGCGCGACCGCCCGGUCGCGUACACCAGAAGGCGCGGGCG [1st #57] (Eterna round: R97, puzzle: Exclusion 1)”, the “apparent KD of MS2 coat protein” value turned out to be 46.2 nM (input ligand: FMN 200 uM) and 22.3 nM (input ligand: none).
